Laboratory results as given in patent publication US20240192215A1.

Columns and labels:
TRX-N-His-M1 (human) = TRX-N-His-M1 (human) (UniProt P10599); assay: ELISA, mutant M1 coated at 2 ug/mL, antibody concentration not given, anti-mouse Fc-HRP (Example 16)
Peptide_044 (human) [1] = target: T1, Peptide_044 (human); assay: peptide microarray, 0.0016 ug/mL
T1 sequence (peptide): FSATWCGPCKMIKPF

Peptide_096 (human) [2] = target: T2, Peptide_096 (human); assay: peptide microarray, 0.0016 ug/mL
T2 sequence (peptide): FFKKGQKVGEFSGAN

Peptide_097 (human) [3] = target: T3, Peptide_097 (human); assay: peptide microarray, 0.0016 ug/mL
T3 sequence (peptide): FKKGQKVGEFSGANK

Peptide_044 (human) [4] = target: T1, Peptide_044 (human); assay: peptide microarray, head 0.08 ug (text 0.008 ug/mL)
Peptide_096 (human) [5] = target: T2, Peptide_096 (human); assay: as above
Peptide_097 (human) [6] = target: T3, Peptide_097 (human); assay: as above
TRX-N-His-M2 (human) = TRX-N-His-M2 (human) (UniProt P10599); assay: ELISA, mutant M2 coated at 2 ug/mL, antibody concentration not given, anti-mouse Fc-HRP (Example 16)
TRX-N-His-M2 (human), sequence (P10599 whole entry): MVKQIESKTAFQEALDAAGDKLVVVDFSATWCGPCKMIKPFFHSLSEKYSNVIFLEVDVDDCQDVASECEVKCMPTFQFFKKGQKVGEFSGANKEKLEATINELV

Peptide_044 (human) [7] = target: T1, Peptide_044 (human); assay: peptide microarray, 1 ug/mL
Peptide_096 (human) [8] = target: T2, Peptide_096 (human); assay: peptide microarray, 1 ug/mL
Peptide_097 (human) [9] = target: T3, Peptide_097 (human); assay: peptide microarray, 1 ug/mL
TRX-N-His-M4 (human) = TRX-N-His-M4 (human) (UniProt P10599); assay: ELISA, mutant M4 coated at 2 ug/mL, antibody concentration not given, anti-mouse Fc-HRP (Example 16)
TRX-N-His-M4 (human), sequence (P10599 whole entry): as above

Peptide_044 (human) [10] = target: T1, Peptide_044 (human); assay: peptide microarray, 5 ug/mL
Peptide_096 (human) [11] = target: T2, Peptide_096 (human); assay: peptide microarray, 5 ug/mL
Peptide_097 (human) [12] = target: T3, Peptide_097 (human); assay: peptide microarray, 5 ug/mL
M7 = target: T4, M7; assay: ELISA, mutant M7 coated at 2 ug/mL, antibody concentration not given, anti-mouse Fc-HRP (Example 16)
T4 sequence (single chain): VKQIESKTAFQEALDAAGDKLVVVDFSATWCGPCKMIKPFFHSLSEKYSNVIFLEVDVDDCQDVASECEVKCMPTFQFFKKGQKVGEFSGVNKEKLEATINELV

Peptide_044 (human) [13] = target: T1, Peptide_044 (human); assay: peptide microarray, 0.04 ug/mL
Peptide_096 (human) [14] = target: T2, Peptide_096 (human); assay: peptide microarray, 0.04 ug/mL
Peptide_097 (human) [15] = target: T3, Peptide_097 (human); assay: peptide microarray, 0.04 ug/mL
Peptide_044 (human) [16] = target: T1, Peptide_044 (human); assay: peptide microarray, 0.2 ug/mL
Peptide_096 (human) [17] = target: T2, Peptide_096 (human); assay: peptide microarray, 0.2 ug/mL
Peptide_097 (human) [18] = target: T3, Peptide_097 (human); assay: peptide microarray, 0.2 ug/mL

TRX-N-His-M1 (human), sequence (P10599 whole entry): as the sequence (P10599 whole entry) above

- OD 490 nm (TRX-N-His-M1 (human)): 0.0424
- signal (blank-control = 1) (Peptide_044 (human) [1]): 1.6
- signal (blank-control = 1) (Peptide_096 (human) [2]): 0.82
- signal (blank-control = 1) (Peptide_097 (human) [3]): 0.91
- signal (blank-control = 1) (Peptide_044 (human) [4]): 1.87
- signal (blank-control = 1) (Peptide_096 (human) [5]): 0.94
- signal (blank-control = 1) (Peptide_097 (human) [6]): 1.08
- OD 490 nm (TRX-N-His-M2 (human)): 0.094
- signal (blank-control = 1) (Peptide_044 (human) [7]): 2.93
- signal (blank-control = 1) (Peptide_096 (human) [8]): 2.04
- signal (blank-control = 1) (Peptide_097 (human) [9]): 2.18
- OD 490 nm (TRX-N-His-M4 (human)): 0.181
- signal (blank-control = 1) (Peptide_044 (human) [10]): 3.33
- signal (blank-control = 1) (Peptide_096 (human) [11]): 1.9
- signal (blank-control = 1) (Peptide_097 (human) [12]): 2.26
- OD 490 nm (M7): 0.761
- signal (blank-control = 1) (Peptide_044 (human) [13]): 2.12
- signal (blank-control = 1) (Peptide_096 (human) [14]): 1.44
- signal (blank-control = 1) (Peptide_097 (human) [15]): 1.31
- signal (blank-control = 1) (Peptide_044 (human) [16]): 2.3
- signal (blank-control = 1) (Peptide_096 (human) [17]): 1.37
- signal (blank-control = 1) (Peptide_097 (human) [18]): 1.68
B1: monoclonal antibody B264 (antibody, mouse IgG1, kappa, V domains shown)
VH: QVQLQQSGAELARPGASVKMSCKASGYTFTSYTMHWVKQRPGQGLEWIGYINPTSDYTNYNQKFKDKATLTADKSSSTAYMQLSSLTSEDSAVYFCASEGGFLYYFDYWGQGTTLTVSS
VL: DVLMTQTPLSLPVSLGDQASISCRSSQSIVHSNGNTYLEWYLQKPGQSPKLLIYKVSNRFSGVPDRFSGSGSGTDFTLKISRVEAEDLGVYYCFQGSHVPYTFGGGTKLEIKR
